Earlier results in US7109015B2, “Removal of N-terminal methionine from proteins by engineered methionine aminopeptidase” (Academia Sinica, priority 2004, dated 2006).
Substitutions are numbered along the chain they refer to. Names and notes keep the numbering of the source.

B1: F177L: E. coli MetAP mutation in the putative substrate-binding pocket (protein, UniProt P0AE18 2-264, looked up, variant F177L)
Methionine aminopeptidase: AISIKTPEDIEKMRVAGRLAAEVLEMIEPYVKPGVSTGELDRICNDYIVNEQHAVSACLGYHGYPKSVCISINEVVCHGIPDDAKLLKDGDIVNIDVTVIKDGFHGDTSKMFIVGKPTIMGERLCRITQESLYLALRMVKPGINLREIGAAIQKFVEAEGFSVVREYCGHGIGRGLHEEPQVLHYDSRETNVVLKPGMTFTIEPMVNAGKKEIRTMKDGWTVKTKDRSLSAQYEHTIVVTDNGCEILTLRKDDTIPAIISHDE
B2: C70S: E. coli MetAP mutation in the putative substrate-binding pocket (protein, UniProt P0AE18 2-264, looked up, variant C70S)
Methionine aminopeptidase: B1 Methionine aminopeptidase with C69S, L176F
B3: W221L: E. coli MetAP mutation in the putative substrate-binding pocket (protein, UniProt P0AE18 2-264, looked up, variant W221L)
Methionine aminopeptidase: B1 Methionine aminopeptidase with L176F, W220L

Conditions: E. coli MetAP mutations; Chiu et al. 1999; cited from earlier work

| Molecule | Catalytic activity, % activity of the wild type |
| --- | --- |
| B1 | do not reduce catalytic activity |
| B2 | 54% |
| B3 | 27% |
